What follows are sequences tested on Escherichia coli TOP10 (assay: shrunken log2 fold change of peptide-encoding DNA abundance (4.5 h post-induction vs induction); higher = less antimicrobial activity (less host growth inhibition)). Conditions: time post-induction: 4.5 h; library: site-saturation at positions 5, 18, 19, 20.
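Further: peptides expressed intracellularly from a pBAD plasmid library in pooled LB shake-flask culture, induced with 0.3% L-arabinose, DNA abundance read by NGS, three biological replicates, DESeq2 with apeglm shrinkage.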

Sequence | shrunken log2 fold change
RRIRERPPRLPRPRPRPPKFPRP | -0.0978
RRIRQRPPRLPRPRPRPFEPPRP | -0.238
RRIRTRPPRLPRPRPRPQCLPRP | 0.0552
RRIRFRPPRLPRPRPRPTVKPRP | -0.163
RRIRHRPPRLPRPRPRPECIPRP | -0.00992
RRIRIRPPRLPRPRPRPKCRPRP | -0.452
RRIRIRPPRLPRPRPRPAPYPRP | -0.406
RRIRARPPRLPRPRPRPGWGPRP | 0.463
RRIRHRPPRLPRPRPRPYHAPRP | -1.21
RRIRNRPPRLPRPRPRPAVFPRP | 0.0636
RRIRNRPPRLPRPRPRPYAVPRP | -0.0739
RRIRLRPPRLPRPRPRPKWMPRP | -0.00339
RRIRKRPPRLPRPRPRPWNSPRP | 0.0199
RRIRGRPPRLPRPRPRPWWMPRP | 0.322
RRIRMRPPRLPRPRPRPHHCPRP | -0.27
RRIRIRPPRLPRPRPRPTRDPRP | -0.0265
RRIRMRPPRLPRPRPRPEIMPRP | 2.57
RRIRNRPPRLPRPRPRPYRQPRP | -0.01
RRIRLRPPRLPRPRPRPWAVPRP | 0.0558
RRIRCRPPRLPRPRPRPWYCPRP | -0.248
RRIRYRPPRLPRPRPRPKFRPRP | -0.102
RRIRQRPPRLPRPRPRPFTEPRP | -0.223
RRIRLRPPRLPRPRPRPPRDPRP | 0.531
RRIRDRPPRLPRPRPRPFHAPRP | -0.108
RRIRHRPPRLPRPRPRPRDNPRP | 0.0766

Sequence | shrunken log2 fold change
RRIRIRPPRLPRPRPRPGGWPRP | 0.56
RRIRGRPPRLPRPRPRPGWCPRP | 0.484
RRIRWRPPRLPRPRPRPRFRPRP | 0.314
RRIRERPPRLPRPRPRPGPCPRP | 0.183
RRIRSRPPRLPRPRPRPFLFPRP | -0.329
RRIRCRPPRLPRPRPRPTEKPRP | -0.293
RRIRLRPPRLPRPRPRPWPCPRP | 0.209
RRIRTRPPRLPRPRPRPYLGPRP | -0.00172
RRIRTRPPRLPRPRPRPVGWPRP | 0.753
RRIRVRPPRLPRPRPRPVGVPRP | 0.321
RRIRERPPRLPRPRPRPIYTPRP | 0.036
RRIRRRPPRLPRPRPRPTSAPRP | 0.274
RRIRPRPPRLPRPRPRPVVMPRP | -0.174
RRIRHRPPRLPRPRPRPGGIPRP | -0.092
RRIRTRPPRLPRPRPRPEMWPRP | 0.0446
RRIRCRPPRLPRPRPRPSRLPRP | 0.0589
RRIRCRPPRLPRPRPRPWPVPRP | 0.215
RRIRKRPPRLPRPRPRPPINPRP | -0.0392
RRIRPRPPRLPRPRPRPATDPRP | 0.00951
RRIRLRPPRLPRPRPRPTIDPRP | -0.521
RRIRNRPPRLPRPRPRPARAPRP | 0.44
RRIRARPPRLPRPRPRPQQQPRP | 0.946
RRIRCRPPRLPRPRPRPGLQPRP | 0.109
RRIRPRPPRLPRPRPRPTECPRP | 0.0179
RRIRARPPRLPRPRPRPIKSPRP | 0.226

Sequence | shrunken log2 fold change
RRIRPRPPRLPRPRPRPGTAPRP | 0.163
RRIRNRPPRLPRPRPRPNQPPRP | -0.055
RRIRMRPPRLPRPRPRPANMPRP | -0.203
RRIRRRPPRLPRPRPRPWKEPRP | -0.00773
RRIRDRPPRLPRPRPRPTVPPRP | -0.326
RRIRRRPPRLPRPRPRPFLSPRP | 0.128
RRIRSRPPRLPRPRPRPMWAPRP | 0.00731
RRIRQRPPRLPRPRPRPGEQPRP | 0.201
RRIRTRPPRLPRPRPRPQAEPRP | -0.00758
RRIRFRPPRLPRPRPRPKEWPRP | -0.00364
RRIRPRPPRLPRPRPRPYYEPRP | -0.321
RRIRPRPPRLPRPRPRPRTCPRP | 0.322
RRIRRRPPRLPRPRPRPGCQPRP | -0.176
RRIRFRPPRLPRPRPRPDYFPRP | -0.167
RRIRRRPPRLPRPRPRPNGEPRP | 0.43
RRIRMRPPRLPRPRPRPGHCPRP | -0.0518
RRIRDRPPRLPRPRPRPPAPPRP | 1.05
RRIRLRPPRLPRPRPRPQPIPRP | 0.0892
RRIRHRPPRLPRPRPRPLRHPRP | -0.132
RRIRCRPPRLPRPRPRPGCNPRP | -0.425
RRIRGRPPRLPRPRPRPMKEPRP | 0.31
RRIRARPPRLPRPRPRPSRHPRP | -0.00582
RRIRARPPRLPRPRPRPYLDPRP | 0.118
RRIRARPPRLPRPRPRPLKMPRP | 0.283
RRIRLRPPRLPRPRPRPCHVPRP | -0.412

Sequence | shrunken log2 fold change
RRIRMRPPRLPRPRPRPGKGPRP | 0.0403
RRIRSRPPRLPRPRPRPGTFPRP | 0.0493
RRIRQRPPRLPRPRPRPKISPRP | -0.144
RRIRMRPPRLPRPRPRPLLEPRP | 2.21
RRIRRRPPRLPRPRPRPPQKPRP | 1.31
RRIRMRPPRLPRPRPRPPAHPRP | 0.721
RRIRNRPPRLPRPRPRPSLCPRP | 0.0773
RRIRFRPPRLPRPRPRPDAFPRP | -0.491
RRIRFRPPRLPRPRPRPDQSPRP | 0.0148
RRIRDRPPRLPRPRPRPPMMPRP | -0.0737
RRIRFRPPRLPRPRPRPCREPRP | -0.0892
RRIRPRPPRLPRPRPRPECNPRP | -0.0298
RRIRARPPRLPRPRPRPFINPRP | -0.356
RRIRCRPPRLPRPRPRPGCEPRP | 0.159
RRIRDRPPRLPRPRPRPVIIPRP | -0.316
RRIRFRPPRLPRPRPRPITMPRP | -0.503
RRIRMRPPRLPRPRPRPCSFPRP | 0.0622
RRIRERPPRLPRPRPRPLRGPRP | 0.529
RRIRYRPPRLPRPRPRPPDAPRP | 0.0465
RRIRTRPPRLPRPRPRPVIWPRP | 0.128
RRIRLRPPRLPRPRPRPTMKPRP | -0.0755
RRIRRRPPRLPRPRPRPIRFPRP | 0.0747
RRIRTRPPRLPRPRPRPEQFPRP | -0.0905
RRIRLRPPRLPRPRPRPVFVPRP | -0.198
RRIRDRPPRLPRPRPRPSKYPRP | -0.455

Sequence | shrunken log2 fold change
RRIRTRPPRLPRPRPRPDNFPRP | -0.231
RRIRARPPRLPRPRPRPMDEPRP | 1.02
RRIRCRPPRLPRPRPRPCKVPRP | -0.147
RRIRERPPRLPRPRPRPTMDPRP | 0.0537
RRIRTRPPRLPRPRPRPIRKPRP | 0.0309
RRIRWRPPRLPRPRPRPQMNPRP | -0.243
RRIRFRPPRLPRPRPRPKQIPRP | -0.218
RRIRERPPRLPRPRPRPQRGPRP | -0.0773
RRIRRRPPRLPRPRPRPCTPPRP | -0.0236
RRIRNRPPRLPRPRPRPTRTPRP | 0.211
RRIRFRPPRLPRPRPRPTLEPRP | 0.197
RRIRKRPPRLPRPRPRPHQAPRP | -0.137
RRIRARPPRLPRPRPRPPFCPRP | 0.31
RRIRCRPPRLPRPRPRPWWKPRP | -0.334
RRIRVRPPRLPRPRPRPCFTPRP | -0.0879
RRIRFRPPRLPRPRPRPMEQPRP | -0.00146
RRIRYRPPRLPRPRPRPRETPRP | -0.0404
RRIRYRPPRLPRPRPRPCFKPRP | -0.328
RRIRFRPPRLPRPRPRPNSSPRP | -0.247
RRIRPRPPRLPRPRPRPLEIPRP | -0.199
RRIRDRPPRLPRPRPRPLRFPRP | 0.61
RRIRQRPPRLPRPRPRPNPVPRP | -0.117
RRIRARPPRLPRPRPRPAASPRP | 0.928
RRIRGRPPRLPRPRPRPEDGPRP | 1.31
RRIRSRPPRLPRPRPRPKMLPRP | -0.149

Sequence | shrunken log2 fold change
RRIRQRPPRLPRPRPRPWCKPRP | -0.0323
RRIRHRPPRLPRPRPRPWMTPRP | -0.225
RRIRCRPPRLPRPRPRPNAAPRP | 0.975
RRIRQRPPRLPRPRPRPRGAPRP | 0.399
RRIRDRPPRLPRPRPRPFEAPRP | 0.277
RRIRQRPPRLPRPRPRPAKGPRP | 0.01
RRIRFRPPRLPRPRPRPGFQPRP | 0.0959
RRIRFRPPRLPRPRPRPRRPPRP | 0.668
RRIRIRPPRLPRPRPRPNTPPRP | -0.487
RRIRSRPPRLPRPRPRPELYPRP | -0.00809
RRIRYRPPRLPRPRPRPMFHPRP | -1.24
RRIRMRPPRLPRPRPRPNPAPRP | 0.201
RRIRIRPPRLPRPRPRPCGPPRP | -0.138
RRIRARPPRLPRPRPRPQCTPRP | -0.0222
RRIRYRPPRLPRPRPRPLVHPRP | 0.0162
RRIRKRPPRLPRPRPRPQFIPRP | -0.0823
RRIRWRPPRLPRPRPRPYWVPRP | -0.294
RRIRTRPPRLPRPRPRPQYSPRP | -0.056
RRIRNRPPRLPRPRPRPEWPPRP | 0.178
RRIRRRPPRLPRPRPRPCVKPRP | 0.252
RRIRLRPPRLPRPRPRPLAKPRP | 0.0773
RRIRCRPPRLPRPRPRPLLAPRP | 0.229
RRIRDRPPRLPRPRPRPQWIPRP | -0.222
RRIRYRPPRLPRPRPRPHAPPRP | -0.0159
RRIRPRPPRLPRPRPRPNDHPRP | -0.386

From the supplement of paper PMC9112550, “Optimization of the antimicrobial peptide Bac7 by deep mutational scanning” (BMC Biology, 2022)
